Assay in all cases: cell-based or functional assay
Experiment [1] addresses αMβ2 (Mac-1; CD11b/CD18) on human peripheral blood monocytes (human) (UniProt P11215).
For experiment [2], the target named is CD54 (ICAM-1) on A375 human melanoma cells (human) (UniProt P05362).
In experiment [3] the target is αLβ2 (LFA-1; CD11a/CD18) on human peripheral blood leukocytes (human) (UniProt P20701).

The values below come from US20070060522A1.

CD54 (ICAM-1) on A375 human melanoma cells (human), sequence (P05362 28-532): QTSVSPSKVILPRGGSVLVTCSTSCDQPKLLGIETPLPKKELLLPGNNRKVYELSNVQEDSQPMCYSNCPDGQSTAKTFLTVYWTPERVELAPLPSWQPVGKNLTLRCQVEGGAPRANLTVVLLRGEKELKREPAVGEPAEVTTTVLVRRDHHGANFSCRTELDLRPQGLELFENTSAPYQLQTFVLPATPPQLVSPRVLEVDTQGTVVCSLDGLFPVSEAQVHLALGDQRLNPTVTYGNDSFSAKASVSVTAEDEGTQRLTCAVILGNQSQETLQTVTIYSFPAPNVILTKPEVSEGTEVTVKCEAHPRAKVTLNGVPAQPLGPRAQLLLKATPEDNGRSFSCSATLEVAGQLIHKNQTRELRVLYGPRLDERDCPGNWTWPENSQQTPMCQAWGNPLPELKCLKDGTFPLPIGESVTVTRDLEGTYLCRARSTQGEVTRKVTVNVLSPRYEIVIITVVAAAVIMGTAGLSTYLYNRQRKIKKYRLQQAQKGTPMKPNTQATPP

Turning to “blocking monoclonal anti-αMβ2 antibody (clone ICRF44)”, in experiment [1], the inhibition of monocyte adherence to sFn pretreated tumor cells came to 80% and the inhibition of monocyte adherence to untreated A375 cells stood at 22.5%.

Regarding “murine anti-human monoclonal blocking antibody against CD54 (clone 84H10)”, in experiment [2], the inhibition of adherence of sFn pretreated monocytes to A375 cells amounted to 86% and the inhibition of adherence of untreated monocytes to A375 cells was 53%.

Consider “murine anti-human monoclonal blocking antibody against αLβ2 (clone 25.3)”, for which, in experiment [3], the inhibition of monocyte adherence to sFn pre-treated A375 cells is 23% and the inhibition of monocyte adherence to untreated A375 cells worked out at 80%.

Take “soluble fibrin (sFn) (from UniProt P02671 36-629; P02675 45-491; P02679 27-453) (ligand)”: in experiment [1], the adherence of sFn treated monocytes to untreated A375 cells, static microplate assay (untreated control 32.9+1.3%) is 38.8% and the monocyte adherence to sFn pre-treated A375 cells, static microplate assay (untreated control 32.9+1.3%) was 68.5%. Moreover, the monocyte adherence when monocytes and A375 cells were both pre-treated with sFn, static microplate assay (untreated control 32.9+1.3%) in experiment [2] turned out to be 15.9%.
